According to publication PMC10785756, “Hydrolysis of Antimicrobial Peptides by Extracellular Peptidases in Wastewater” (Environmental Science & Technology, 2023):

Tests used:
[1] = test system: extracellular wastewater peptidases (pool I extracts from WWTP influents); test: Absolute quantification of transformation products (TPs) formed during AMP incubation with wastewater extracts; format: in vitro ADME
Experimental: We thawed enzyme extracts and transferred 1.35 mL to 2 mL protein LoBind Eppendorf tubes. For autoclaved controls, extract aliquots of 1.5 mL were autoclaved for 20 min at 121 °C and 2 bar (Wolf Sanoclav LaS-MCS-J) and 1.35 mL of the autoclaved extracts were transferred into 2 mL protein LoBind Eppendorf tubes. We then spiked 150 μL of the AMP stock solution containing all AMPs at 10 μg/mL to the enzyme extracts or 1.35 mL of ultrapure water. […] Triplicate incubations were conducted for the autoclaved and active extracts with spiked AMP. After AMP spiking, we mixed the solutions by inverting the vials and incubating them at 20 °C under horizontal shaking at 300 rpm. To stop enzymatic reactions at pre-defined sampling time points (i.e., 2 min, 30 min, 1 h, 2 h, and 4 h), we transferred 150 μL of the incubation solution to 450 μL of acetonitrile containing 1% (v/v) formic acid in 1.5 mL protein LoBind Eppendorf tubes, mixed the resulting solution by inverting the tube and by horizontally shaking it at 300 rpm for 2 min at 20 °C, and centrifuged samples at 16,000g for 1 min. This protocol step was conducted according to Luther et al.[9] We then transferred the supernatant into a fresh 1.5 mL protein LoBind Eppendorf tube and dried it in a SpeedVac vacuum concentrator (30 °C for approximately 6 h). To resolubilize AMPs, we added 150 μL of water containing 5% (v/v) acetonitrile and 0.1% (v/v) formic acid, vortexed the samples, and centrifuged them for 10 s at 1000g at room temperature. We transferred the solution into QuanRecovery HPLC vials (Waters, 186009186) and stored the samples at −20 °C until analysis. For method development, selected (and indicated) samples were sonicated (Sonorex Super RK 106, Bandelin, max 480 W) for 5 min at different steps of the sample preparation process.
We analyzed AMPs using UHPLC (Thermo Scientific Dionex Ultimate 3000) equipped with a Waters XSelect PREMIER CSH C18 column (article number: 186009870) coupled to HRMS (Thermo QExactive). […] We used Skyline (version 20.2.0.343) to analyze the raw data. Criteria for parent peptides and hydrolysis product identification were set as described before:[31]m/z deviation <2 ppm, MS/MS fragments with m/z deviation <5 ppm, and reasonable chromatographic peak shape. For products, the peak area had to either increase throughout the incubation experiment or first increase and then decrease.
To learn about the enzymatic hydrolysis pathways of AMPs that we found to be rapidly biotransformed by enzymes in wastewater extracts, we predicted all products of single peptide bond hydrolysis reactions and screened our data-dependent high-resolution mass spectrometry data for experimental evidence in support of the predicted hydrolysis products. These analyses were conducted for the AMPs with the highest biotransformation extents (i.e., >0.5 in at least two WWTPs), namely, cecropin P1, omiganan, and R8. The following requirements for transformation products (TPs) were defined: at least three amino acids, peak area either increases during the incubation experiment or first increases and then decreases, peak area exceeds that in AMP-free enzyme extract by >5-fold and that in spiked autoclaved extracts by >6-fold, and mass deviation <2 ppm from the calculated exact mass. Mass lists, mass deviations, and retention times of all TPs can be found in Tables S6–S11. We further predicted TPs formed via exocleavage mechanisms (i.e., cleavage of one or two terminal amino acids simultaneously from the C- and N- terminus of the peptide) and screened for these TPs in the HRMS data.
For cecropin P1, we performed absolute quantification for TPs II, III, IV, V, VI, and X and found the highest concentrations for TP III. Up to 8.8% of spiked cecropin P1 is converted to TP III during incubations with wastewater extract. For TP II, the conversion ranges from 3.7–5.7%, and for TP V and VI, conversions range between 1.5 and 4.9 and 2.1 and 2.9%, respectively. […]

[2] = test system: extracellular wastewater peptidases (pool I extracts from WWTP influents); test: AMP incubation with active dissolved extracellular wastewater extracts (pool I) from WWTP influents; format: in vitro ADME
Experimental: We took samples from four municipal WWTPs in Austria ([…], and D). […] Where existing, we sampled the following five stages along the wastewater treatment process: influent, primary clarification tank, high-load and low-load aeration tanks, and effluent. […] We took 2 × 500 mL grab samples at each stage using a plastic beaker. We transferred the samples into 500 mL glass bottles leaving roughly one-third of the bottle empty, transported them to the lab, and pooled duplicate samples for further processing. Enzyme extraction started within 1 h after sampling. For total suspended solid (TSS) determination, we filtered 20 mL of each sample through a preweighed, dry GF/F Whatman glass microfiber filter (Sigma-Aldrich, WHA1825047) using a vacuum filtration system, dried the filters at 105 °C for 2 h, and determined the TSS contents from the weight difference. […] Otherwise, the extraction process was the same for pools I and II. All extractions were performed in triplicate, and extracts were kept on ice until further use. […] Triplicate incubations were conducted for the autoclaved and active extracts with spiked AMP. […] This protocol step was conducted according to Luther et al.[9] We then transferred the supernatant into a fresh 1.5 mL protein LoBind Eppendorf tube and dried it in a SpeedVac vacuum concentrator (30 °C for approximately 6 h). […] We transferred the solution into QuanRecovery HPLC vials (Waters, 186009186) and stored the samples at -20 °C until analysis. For method development, selected (and indicated) samples were sonicated (Sonorex Super RK 106, Bandelin, max 480 W) for 5 min at different steps of the sample preparation process. We analyzed AMPs using UHPLC (Thermo Scientific Dionex Ultimate 3000) equipped with a Waters XSelect PREMIER CSH C18 column (article number: 186009870) coupled to HRMS (Thermo QExactive). We injected 10 μL of each sample and applied a flow rate of 0.4 mL/min using the following eluent gradient (A: ultrapure water, B: […] Detection parameters were chosen as follows: […] We used Skyline (version 20.2.0.343) to analyze the raw data. […] For products, the peak area had to either increase throughout the incubation experiment or first increase and then decrease.

[3] = AMP incubation with autoclaved wastewater extracts (abiotic removal / adsorption control); format: physicochemical; conditions: wastewater extracts (pool I influent)
Experimental: We thawed enzyme extracts and transferred 1.35 mL to 2 mL protein LoBind Eppendorf tubes. For autoclaved controls, extract aliquots of 1.5 mL were autoclaved for 20 min at 121 °C and 2 bar (Wolf Sanoclav LaS-MCS-J) and 1.35 mL of the autoclaved extracts were transferred into 2 mL protein LoBind Eppendorf tubes. We then spiked 150 μL of the AMP stock solution containing all AMPs at 10 μg/mL to the enzyme extracts or 1.35 mL of ultrapure water. […] Triplicate incubations were conducted for the autoclaved and active extracts with spiked AMP. After AMP spiking, we mixed the solutions by inverting the vials and incubating them at 20 °C under horizontal shaking at 300 rpm. […]
We analyzed AMPs using UHPLC (Thermo Scientific Dionex Ultimate 3000) equipped with a Waters XSelect PREMIER CSH C18 column (article number: 186009870) coupled to HRMS (Thermo QExactive). […]
In parallel to AMP incubations with active enzyme extracts, we conducted AMP incubations with autoclaved enzyme extracts to control for abiotic removal (e.g., due to adsorption to components in wastewater extracts). Autoclaving decreased the peptidase activity, as measured with the above-mentioned fluorogenic probe-based assay, of wastewater extracts to <3% of their original activity. […] We determined the AMP concentrations in unspiked enzyme extracts, which were below the limit of quantification (LOQ) for all AMPs in all WWTPs.

cecropin P1 (SWLSKTAKKLENSAKKRISEGIAIAIQGGPR; UniProt P14661 14-44, looked up) [AMP from the parasitic nematode Ascaris suum; linear peptide of canonical amino acids]
share of spiked AMP concentration that could be transformed into the selected TPs, considering the maximum sorption potential of each TP [1]: up to 31.6% | sum of quantified TPs as share of the initially spiked AMP concentration [1]: 22.8% | biotransformation extent (eq 1, from concentrations in active and autoclaved extracts) [2]: > 0.5 | removal by biotransformation in active wastewater extracts (in words) [2]: rapidly removed to nonquantifiable concentrations | concentration after 30 min of incubation in active extracts ([2]; pool I influent extracts from all tested WWTPs, 20 °C, HPLC-HRMS): below the LOQ | detectable removal between first sampling time point and 30 min in active extracts ([2]; pool I influent extracts, WWTPs A-D, all AMPs spiked together (150 μL of 10 μg/mL into 1.35 mL extract), 20 °C, 300 rpm, first point 2 min, then 30 min, HPLC-HRMS, triplicate incubations, maximum over WWTPs, limited by LOQ): up to 85% | spiked AMP removed by sorption [3]: up to 70%
